Laboratory results: patent US12492252

Biological target: human GPC3 on cells (HepG2 cells expressing full length human GPC3; GPC3-transfected HEK293T cells) (human) (UniProt P51654)
Assay: cell-based or functional assay

Substance: GC33 CAR (GC33 Benchmark)
- IFN-gamma cytokine release (pg/mL), E:T 1:1: 8180 pg/mL
- IFN-gamma cytokine release (pg/mL), E:T 1:3: 2760 pg/mL
- IFN-gamma cytokine release (pg/mL), E:T 3:1: 15000 pg/mL
- Specific lysis (%) of HepG2 cells, E:T 1:1: 9.78%
- Specific lysis (%) of HepG2 cells, E:T 1:3: 4.57%
- Specific lysis (%) of HepG2 cells, E:T 3:1: 17.2%
